Data reported in patent publication US20100068145A1.

Target: Collagen I
Assay: cell-based or functional assay

- adhesion of EPCs (CD34+ cells) to immobilized collagen I, flow chamber model (2,000 sec^-1), fold against collagen alone: 10 fold
- adhesion of EPCs (CD34+ cells) to immobilized collagen I, static adhesion assay, fold against collagen alone: 5 fold
B1: GPVI-CD133 construct (bispecific fusion protein: soluble GPVI-Fc chemically conjugated via SPDP to the CD133-reactive monoclonal antibody W6B3C1) (protein, part only; not given: Fc and anti-CD133 antibody chains, human, not shown: a dimerising Fc or GST)
chain, part: QSGPLPKPSLQALPSSLVPLEKPVTLRCQGPPGVDLYRLEKLSSSRYQDQAVLFIPAMKRSLAGRYRCSYQNGSLWSLPSDQLELVATGVFAKPSLSAQPGPAVSSGGDVTLQCQTRYGFDQFALYKEGDPAPYKNPERWYRASFPIITVTAAHSGTYRCYSFSSRDPYLWSAPSDPLELVVTGTSVTPSRLPTEPPSSVAEFSEATAELTVSFTNKVFTTETSRSITTSPKESDSPAGPARQYYTK
modifications: amino groups modified with SPDP (N-succinimidyl 3-(2-pyridyldithio)-propionate), reduced with DTT and conjugated to the SPDP-modified CD133 antibody
